Consider one protein from doi:10.1101/2020.04.03.023861 (bioRxiv, 2020).

For orientation: stoichiometry N means a count of units in the complex or per binding partner.

The data set deals with the molecule itself. In words: detergent-resistant band of doubled size on SDS-PAGE and western blot. For orientation: In western blotting, separated proteins are transferred to a membrane and probed.

B1: TMEM70-FLAG (natural protein, human, UniProt Q9BUB7 82-260, looked up)
chain: LNTPSDKSEDGRLIYTGNMARAVFGVKCFSYSTSLIGLTFLPYIFTQNNAISESVPLPIQIIFYGIMGSFTVITPVLLHFITKGYVIRLYHEATTDTYKAITYNAMLAETSTVFHQNDVKIPDAKHVFTTFYAKTKSLLVNPVLFPNREDYIHLMGYDKEEFILYMEETSEEKRHKDDK
As for B1, the “stoichiometry N” value came out at 2.
